Test results taken from article PMC10144504 (Cell, 2023).
Each block holds one molecule with its values, some of them ahead of it.

Columns and labels:
[1] = target: mC-GCGR-31C-NBD (minimal cysteine GCGR labelled with NBD on the N-terminal helix of the ECD) (human) (UniProt P47871); test: other fluorescence titration
[2] = target: mC-GCGR-345C-NBD (minimal cysteine GCGR labelled with NBD at the cytoplasmic end of TM6) (human) (UniProt P47871); test: other fluorescence titration
[3] = target: Nanoluc-GCGR fusion protein (human) (UniProt P47871); test: FRET or BRET
[4] = target: Human glucagon receptor (Q27-F477) (human, UniProt P47871 27-477); test: pull-down
Chain of Human glucagon receptor (Q27-F477) (P47871 27-477): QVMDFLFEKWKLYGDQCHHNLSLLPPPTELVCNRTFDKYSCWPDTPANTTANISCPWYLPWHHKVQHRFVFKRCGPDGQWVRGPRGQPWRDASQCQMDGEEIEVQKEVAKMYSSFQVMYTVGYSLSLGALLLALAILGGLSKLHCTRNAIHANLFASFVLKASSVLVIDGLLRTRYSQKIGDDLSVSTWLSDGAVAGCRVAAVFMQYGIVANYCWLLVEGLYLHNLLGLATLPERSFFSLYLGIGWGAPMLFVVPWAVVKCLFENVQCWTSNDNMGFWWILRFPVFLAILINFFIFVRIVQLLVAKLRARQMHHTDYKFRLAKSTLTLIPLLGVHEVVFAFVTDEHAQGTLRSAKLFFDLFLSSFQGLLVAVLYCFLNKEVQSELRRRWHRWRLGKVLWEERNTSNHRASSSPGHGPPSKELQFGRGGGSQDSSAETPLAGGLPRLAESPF

Chain of Nanoluc-GCGR fusion protein (human) (P47871 26-477): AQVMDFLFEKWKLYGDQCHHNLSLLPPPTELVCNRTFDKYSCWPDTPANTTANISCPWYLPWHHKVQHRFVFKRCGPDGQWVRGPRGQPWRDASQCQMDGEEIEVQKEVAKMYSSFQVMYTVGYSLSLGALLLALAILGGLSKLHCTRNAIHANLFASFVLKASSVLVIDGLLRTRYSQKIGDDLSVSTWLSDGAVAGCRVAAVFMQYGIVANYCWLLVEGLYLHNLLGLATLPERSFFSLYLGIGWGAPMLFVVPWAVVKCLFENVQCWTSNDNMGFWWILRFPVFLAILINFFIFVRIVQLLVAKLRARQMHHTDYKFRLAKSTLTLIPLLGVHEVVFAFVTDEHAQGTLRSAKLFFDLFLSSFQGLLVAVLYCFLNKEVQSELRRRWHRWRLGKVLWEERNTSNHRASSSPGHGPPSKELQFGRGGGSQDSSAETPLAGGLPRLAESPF

EC50 [1]: 0.131 µM
EC50 [2]: 0.225 µM
Molecule: human RAMP2 (residues 43-175) (from UniProt O60895 43-175) (natural protein)

fold decrease in affinity with co-expressed RAMP2 against without RAMP2 [3]: 2.9 fold
Molecule: Dasi-E21S-A17K(TAMRA) (peptide)

binding result [4]: binds
B1: human RAMP2 (residues 43-175) (natural protein, UniProt O60895 43-175, looked up)
chain: QPLPTTGTPGSEGGTVKNYETAVQFCWNHYKDQMDPIEKDWCDWAMISRPYSTLRDCLEHFAELFDLGFPNPLAERIIFETHQIHFANCSLVQPTFSDPPEDVLLAMIIAPICLIPFLITLVVWRSKDSEAQA
